The text below walks through data of publication PMC2713185.

One may read the Kd as the constant that tells how readily two partners part at equilibrium.

For the assay, the target named is TMR-PDZ(C338) domain of Dvl1 (mouse) (UniProt P51141). Kind of assay: other fluorescence titration.
Chain of UniProt P51141 (P51141 251-341): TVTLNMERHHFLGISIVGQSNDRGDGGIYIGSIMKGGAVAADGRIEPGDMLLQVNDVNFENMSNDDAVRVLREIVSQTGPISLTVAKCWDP

With tripeptide VWV, the Kd turned out to be 2 µM.
The substance tripeptide VVV registered an equilibrium dissociation constant (Kd) of 71 µM.
